For assay [1], the target named is DENV-2 NS1 N130Q with carboxy-terminal hexa-histidine tag (Dengue virus serotype 2 (DENV-2), strain 16681). As to the kind of experiment: non-reducing SDS-PAGE with Western blot. On the technique in general: A western blot detects proteins with antibodies after separation by electrophoresis.
The target in assay [2] is T1, DENV-2 NS1 wild type without hexa-histidine tag (Dengue virus serotype 2 (DENV-2), strain 16681), P29990.
T1 chain: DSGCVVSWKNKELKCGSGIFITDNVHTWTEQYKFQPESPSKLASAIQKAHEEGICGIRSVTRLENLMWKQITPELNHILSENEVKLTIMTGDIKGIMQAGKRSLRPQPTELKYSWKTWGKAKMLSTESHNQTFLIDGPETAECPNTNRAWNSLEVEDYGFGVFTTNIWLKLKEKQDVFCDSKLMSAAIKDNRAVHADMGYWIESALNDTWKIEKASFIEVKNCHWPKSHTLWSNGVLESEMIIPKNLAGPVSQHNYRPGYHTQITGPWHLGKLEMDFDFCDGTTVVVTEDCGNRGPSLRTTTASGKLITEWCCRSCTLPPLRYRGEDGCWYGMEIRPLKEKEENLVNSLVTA
Kind of assay: SEC. The conditions noted are these: remark: other sources report otherwise.

As for “DENV-2 NS1 N130Q with carboxy-terminal hexa-histidine tag (natural protein)”, the stoichiometry N (usually the number of molecules, sites or subunits per partner or assembly) in assay [1] is 2.

B1: DENV-2 NS1 wild type without hexa-histidine tag, P29990 776-1127 (natural protein)
chain: T1 chain
Turning to B1, the stoichiometry N in assay [2] was 6.

Values taken from article PMC3089955.
